The text below walks through data of article PMC11233879, “JrPHL8-JrWRKY4-JrSTH2L module regulates resistance to Colletotrichum gloeosporioides in walnut”.

Data set [1] has as its target T1, JrPHL8 (walnut (Juglans)?, UniProt A0A2I4DJV4 1-356).
T1 sequence: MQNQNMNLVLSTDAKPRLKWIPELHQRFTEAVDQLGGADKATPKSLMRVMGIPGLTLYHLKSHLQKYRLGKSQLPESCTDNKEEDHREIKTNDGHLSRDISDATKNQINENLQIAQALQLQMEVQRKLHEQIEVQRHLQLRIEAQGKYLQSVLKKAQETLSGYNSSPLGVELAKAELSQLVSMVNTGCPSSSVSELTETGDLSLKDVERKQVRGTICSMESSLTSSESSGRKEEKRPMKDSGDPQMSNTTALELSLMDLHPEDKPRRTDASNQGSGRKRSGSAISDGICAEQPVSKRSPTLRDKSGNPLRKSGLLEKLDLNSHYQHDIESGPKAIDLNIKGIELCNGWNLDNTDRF
The data set can be described thus: EMSA; LightShift Chemiluminescent EMSA Kit (Beyotime); cold probe 100-fold; buffer, salt, pH and temperature not stated. To be noted: protein: recombinant; tags: His (pET32a fusion); chain copies: 2; label: biotin; blunt.

Data set [2] concerns the target JrWRKY4 (walnut (Juglans)?, UniProt A0A2I4E3K4 1-517). Described as above. To be noted: protein: recombinant; tags: pET32a fusion (Trx-His; article states His-tagged); label: biotin; blunt.

Chain of JrWRKY4 (A0A2I4E3K4 entry or part of it): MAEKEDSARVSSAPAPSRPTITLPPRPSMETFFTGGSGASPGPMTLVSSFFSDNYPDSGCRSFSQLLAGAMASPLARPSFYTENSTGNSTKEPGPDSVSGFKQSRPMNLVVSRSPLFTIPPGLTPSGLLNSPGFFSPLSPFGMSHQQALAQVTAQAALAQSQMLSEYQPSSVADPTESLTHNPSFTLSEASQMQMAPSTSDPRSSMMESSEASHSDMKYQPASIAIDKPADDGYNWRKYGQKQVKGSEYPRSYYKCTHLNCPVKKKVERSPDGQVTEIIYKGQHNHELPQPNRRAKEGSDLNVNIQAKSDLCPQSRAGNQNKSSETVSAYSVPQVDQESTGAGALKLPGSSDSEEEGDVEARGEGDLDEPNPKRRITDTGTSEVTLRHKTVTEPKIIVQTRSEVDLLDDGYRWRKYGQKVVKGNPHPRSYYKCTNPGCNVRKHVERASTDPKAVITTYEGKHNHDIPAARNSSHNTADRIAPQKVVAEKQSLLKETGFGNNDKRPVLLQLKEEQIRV

B1: proJrWRKY4-MBS (dsDNA)
DNA 1: TTCACTATTACTGATATTCTCAACAGAAAAATGTCTAAGAGACAAT
DNA 2: ATTGTCTCTTAGACATTTTTCTGTTGAGAATATCAGTAATAGTGAA
As to B1, the binding result in data set [1] is listed as “binds”.

B2: proJrSTH2L-Wbox (dsDNA)
DNA 1: AACCTAAACCCTTTGTGAAGTTGACCAGATCCTCAACCCGGGATGG
DNA 2: CCATCCCGGGTTGAGGATCTGGTCAACTTCACAAAGGGTTTAGGTT
With B2, in data set [2], the binding result is listed as “binds”.
